The record followed here is a protein production outcome set (Wang et al. 2014).

The data set in a line: label from the status in PepcDB records.

With “MSDAHKSDLYLVLVTLLAAIGWMLSKEAVLMMPPLMFMAARFLIAGAFLALLALPSLLRLSRDQILRSLGVGFVFGIAMTCWIMGLYHTDSMGEGAFLTSLGVVIVPIIARTVFGEQQPLSTWLAIPIAVAGLALLSLENGFRPDPGQLYFVLAATIFALYFTLNTRAANQRIVVDKQGKTVEKKKVPALPLTAIALLTVGTVTLAESAISERWTHILTNPEPMLYVWVLASALIATAARFLLQTYAQSLSVNSHGVVILVLEPVWVAVFAVAWFGETMTLLQIAGCALIFAALLVNRWNALSRAIKALMKAKNPRQRG”, the protein production result is on record as “failed”. To “MSDAPTVVAYLGPAGTFTEEALYKFADAGVFGDGEIEQLPAKSPQEAVDAVRHGTAQFAVVAIENFVDGPVTPTFDALDQGSNVQIIAEEELDIAFSIMVRPGTSLADVKTLATHPVGYQQVKNWMATTIPDAMYLSASSNGAGAQMVAEGTADAAAAPSRAAELFGLERLVDDVADVRGARTRFVAVQAQAAVSEPTGHDRTSVIFSLPNVPGSLVRALNEFAIRGVDLTRIESRPTRKVFGTYRFHLDISGHIRDIPVAEALRALHLQAEELVFVGSWPSNRAEDSTPQTDQLAKLHKADEWVRAASEGRKLN” belongs “not failed”; to “MSDCLFDLHIGYVRFKNPIALAPMAGIVDSAFANQYASNAGLVILGAFNLDKASIAVASALVARGRKEFISDEPMEFMKKEIRAVTSGSAVAVNVRSTTLEPLIEAAKIVKEEGAILELNAHCRQPEMLEAGLGEALLHDLPKLSAWIRAIKETGVVLSVKVRANVVNDIELARLIDKAGADIIHVDAEMEGFGADLDAILNYRDATRLFLIGNNSVKDFEAAKEMFTRGADMVSAARGVLENSGLIQELVENVTSYQQSIGWYNAPKHVCSEGDFRGLAFCCLPVKPCPVHEKFQKLGYTAEEFARTKLDFAKGTMLEYGEDTCFGSLVWCCKITKPCWIRDGVLNTIGLSDTEYMKLKKQLAEYVLDHARIPVNESQ”, “failed”.

In the case of “MSDEVPEILLAHYLKTLKLPTFQREYQKLARLCATEGVDHVEYLLRLSEREMIERDRRKVERRIKAARFPVVKSLDSFDFAAIPKLNKMQVLELARCEWIERRENVIALGPSGTGKTHVALGLGLAACQKGLSVGFTTAAALVSEMMEARDERRLLRFQKQMAAYQLLIIDELGFVPLSKTGAELLFELISQRYERGATLITSNLPFDEWTETLGSERLTGALLDRITHHVNILEMNGDSYRLAQSRARKAGLEHHHHHH”, the protein production entry is “not failed”.

For the sequence “MSDHNNKGRQQDVKALPRRVDERLNLSRHKEVKPSRLHDEVHRIVYELEARQLELEMQQENMLQSKEEMECLLKRYVEHYDIAPHSYMTISREGSILEANLTAAKNLGQDRALLKGDLLEKFIADKDRPVFKAFLERVFRGQTNAFCEVKLFNNQASQARGSAEADRYETVIEERMVRFDAALSNDGEECYIYITVSDRGSQNELEGQNTFFTDRLKDDIADMPDSDKVDFNYQLFDSVIHTRIRLAALSYLYTVKQACFVEIRDKIKASDGSLSVHMRMLESAGYISCDKEFLARKPQTVYRITPLGHDAFLKYSDIVFSLIAKKQEAS”, the protein production entry is recorded as “failed”. To “MSDHVCQEGCRHHSHGEDSPEIQQEFQEGRRDFMRDFAVGGVLASAASLGISSSAFGQTMPKTGLTSGHATHYYIPASDKTVSWGFFSKSLKPVVELESGDFATIETLTHHSNDDASLMVKGDPGAESVFYWDSKRKNVDRRGMGPMDHKLGAGGGMGVHILTGPVAIKGAEPGDVLEVRIVDVALRPSANPEFKGKTFGSNVAANWGFHYNELIEEPKKREVVTIYELDATGERNWARAFYNYRWTPQKDPFGVVHPIVDYPGVPVDHSTISKNYNVLKNIRVPVRPHFGTMGLAPKEADLVNSVPPSHFGGNIDNWRIGKGATMYYPVSVAGGLFSVGDPHASQGDSEMCGTAIECSLTGTFQFILHKKADLPGTPLADLQYPLLETQDEWVLHGFSYANYLAELGPDAQNSIFSKSSLDLALKDAFRKMRHFLMQTQNLTEDEAVSLMSIGVDFGITQVVDGNWGVHAVVKKGIFPGRDV” belongs “not failed”. With “MSDIAVRPIRAEDVPQACAILNRIIEIGGTTAFEQPVSEDEFDAWYVNGADLICCHVALDAAGAVAGFQWLGRNDSLPEGCGDIASFTRREPVLRGAGRALFACTVAVARDRGLAEINATIRADNALGLAYYGKMGFRDHVVTPAVPLRDGRPVDRISKRFDLRG” the entry was “failed”; with “MSDIKHEKKLANMDTPGETTKSFENKLDEEIPDIEESDFINSPPFSDEIFSPEDSKQVEISELSKQAYSLLKGNSITEAINVFKKILELDPTNNYALVGLGDAERKNNKFNEAIKFYKQCLEHHPSNNYALFGLADCYKSMNQFPRAIAIWEEYLKFDDKNITVLTRVADAYRKTKEFEKAEKLYQKVLEKSPKNAYALIGLGHLNYDFKKYREALVYWEKVMESSGELVDIRILTSIGNCYRKMKLFDRGVYYFERALERSPDNFYGLFGLADCYRGLNQQYNSIVYWKKILELDPNNKVILTRIGDAYRSMNDFEKAKESYQKALDIDFDSYAMLGLAILCKLQQKYDQAITTLTHLKDTGDTNYNYRVYLELAQCYIEKKEKQKAIETLIDFQKLGIKNQTVSDLLFELTKNDH”, “failed”. To “MSDIKKLGSSWIINWFFGFNQIPTNEDSSIYMKSVLTCAKADGVISPEEKDWALGFCASWGVADWVIEDLKTYEADEALEEVIARSPQVSMAQRDILLSAIWVSAADGELHEKEKAKIRKMATILGIKEEIVDQLEQLYYYEAALRQKRLNLLYPQKSPY” belongs “not failed”; to “MSDIQVRHVEADKQFVIAVDGEDAGFAGYAERDGHRNFNHTVIDPRFRGQGLSQPLIQQALEATHADGLGVIATCSAVVGFVQKNPEFRDYLA”, “failed”. As for “MSDKHDVIVAGAGPAGAQCARDLAERGYDVVVLEAEPEDEFPRQSNKSTAGTFASMMGAFGVPDDVVMQYTDDVVLESPHEYFVQDQPGAVLEFAEFKQWLVAAGEQQGAEYRFEARVNNPITEGGEIVGVKYDGDEEVYGDIIIDATGPAAPLAKKLGVTDLRRSNQAIGIEWEMENVAVDHEGYADLSDAMMLRLDHDLAPGGYSWIFHTGADTAKVGICYIQNESYQRFGDASKSIDDHLDYWMETDPRLADATKLAGKQHRGSAHIQLPANFSTDNFMAIGDTVPTVDPLWGEGIHKCMESARAAAITADRCFMGDDRDTSADALSIYDDLWHKRVAPNARMRLTMTQLLYLASNERYDRLMSDLQTADVGTLSGANEGGLRSLLEFVHTEDVPLLARFARDRLRA”, the protein production entry is given as “failed”. Turning to “MSDLITLAQLSQGYRYNSDSLILADFILKQGIKGAVFDVGAGCGIIGILLKKNIANLSLSLIDIQKENIELIEKNLKSNKIQGDIFHDDFNQFQIIKKFDFIVCNPPFYRQGAYKSEDQHKAISKFQEFLPLHSFLAKTNSMLKPNGTLYFCYEALALDEICFILKDMKMKITKLCFVHTHQSKKARLVLIQVKKGSKSPCEILPPFFVYENEILSKQMQEIHLRFRLKSYDI”, the protein production entry is “failed”.

With “MSDLLDTVRGLAKKTDSKILMVVLDGVGGLPLTVNGDTELATARTPNLDALAQESQLGQLELVGAGITPGSGPGHLSLFGYDPLKYVVGRGALSAVGIGVKLNRGDVAVRGNFATLGAGRLILDRRAGRPSDEKNAEIVAKLRAAIPEIDGVAVEVYTESEHRFVVVFRAPEGQPLGANISDVDPQVTGVEPKTAIANDPSSEVTAGLINTFVARAEVALADEPQVNGVLFRGYSDVPHFPSFEDAYQLKAACIASYPMYKGLASLVGMDVLPVEGHEDALEGKVKALRENWAKYDFFYFHIKKTDSTGEDGDFAEKVHKIELFDELLPQLLELQPDVIAVVGDHSTPSKLKSHSWHPVPLLIRSNYGRRDPAQRYTEEEAARGTLGLRHGPDLMPLLMANALKLNKYGALEHHHHHH”, the protein production entry is recorded as “not failed”. With “MSDMFLPARMRKLKIITLDQYSDSVVRSLHEEGVTQIDDISERIQQDAEWRQILKPSRATPYTGRVSSLLMKTSGILDFLGSVAAEEKGLRDTIREFINPPIFEKREVEELDTESLIERAEETLGRVESETRVMEEKLNELDSERSAVESSLSVAEKLKDFDIDFSDLQDSEYITGIAGRITAENLPELRDKLADITDELVISDREGENKAERILIIVTLKKHADSIASVLRRMEFERFEISELQGRPSEIISSSKTRLEEISRERKEIISKLRDINAEWEDELLVLREQLEIEKERNEVFSLFGETRKTVMLEAWVPLKEADRVIAVVEESSEGTALTDLEDPDPEEVPVLLDNPRFAKPYETFVEMYSPLKYNEIDPTIFMAFVFPFFFGFCLTDAGYGIIDALIGFILYRGLGKVNNFMRNFGIIMMSCGVWAFILGMVTNGFIGDFFPRFFNITLPTVIPAIDAFVNPQNILIMALTVGVLHINFGLILGARNNIRLGNMREALGSQIVWLILELGIILYLVGGMIFGAPLIILAFAMLLYYNGLFGLMDVSGFLGTLLSYARLLALCLSTGGIAMTVNILTGLSYEMIPVIGVVLAPIIFVFGHIANNAFQSLGAFINSLRLHYVEFFAQFYMGGKNKFNAFRAERNFTKIRR” the entry was “failed”. To “MSDMGVIVKTNARALIPLIGVFGSYIILHGHLTPGGGFQGGATIVGTALLFLIAFGVDEAKKRINKDLYSALEGIGGLVFLGAAMLGLSVAFFYNILWHKGPLFNGRPGTLLSAGFLPIMNLGVGLKVFTGLVSAVFALALFRRWKE” belongs “failed”; to “MSDNAKHHRDGHLVASGLQDRAARTPQHEGFLGPDRPWHLSFSLLLAGSFVLFSWWAFDYAGSGANKVILVLATVVGMFMAFNVGGNDVANSFGTSVGAGTLTMKQALLVAAIFEVSGAVIAGGDVTETIRSGIVDLSGVSVDPRDFMNIMLSALSAAALWLLFANRMGYPVSTTHSIIGGIVGAAIALGMVSGQGGAALRMVQWDQIGQIVVSWVLSPVLGGLVSYLLYGVIKRHILLYNEQAERRLTEIKKERIAHRERHKAAFDRLTEIQQIAYTGALARDAVAANRKDFDPDELESDYYRELHEIDAKTSSVDAFRALQNWVPLVAAAGSMIIVAMLLFKGFKHMHLGLTTMNNYFIIAMVGAAVWMATFIFAKTLRGESLSRSTFLMFSWMQVFTASGFAFSHGSNDIANAIGPFAAILDVLRTGAIEGNAAVPAAAMVTFGVALCAGLWFIGRRVIATVGHNLTTMHPASGFAAELSAAGVVMGATVLGLPVSSTHILIGAVLGVGIVNRSTNWGLMKPIVLAWVITLPSAAILASVGLVALRAIF”, “failed”; to “MSDNALTSSRRFGGIARLYGDSALAHFSQAHVCVVGVGGVGSWAVEALARTGIGRLTLIDLDNVAESNVNRQLHALTGDFGKAKVTALRERITQINPQCEVFEIEDFVTEDNLPEYFGKGFDFVIDAIDQVRVKAAMAAYFVERKQPFVLSGGAGGQKNPALIQTADLSRVTHDPLLANLRYTLRKRYGFSRDTKANMRVPCVYSTENIVPPQSREACSADAAPQGLSCAGYGASMLVTASFGLYCAQAAVEHIADKKLEHHHHHH”, “not failed”.

For the sequence “MSDPAIAVLPYGMKLGPALSGLPLDQVNWPLGCPERLVGKTLGDLGAGDHLLVYPRTGTHFQLSRGTRARISLIMAEPAVIHAKHYALLRVTWRRFHRVLTFNQAAVDRLPNARLLLFGSTWVPEWQSLTPEKVAQCSLIASAKRDSTGHKLRHAVVDWVRASDQDVAVLGRGYQPFDSKADGLAPYRYSVVIENVQERNYFSEKLLDAVFCETVPIYWGCPNIADFVDTTAMILCTREEDIRRAVAEMSAEDYAARLPALRALKQQLAPYAAHEARAARMILDELLEHHHHHH”, the protein production entry is recorded as “not failed”. Consider “MSDQPRPTVIITGASSGVGLYATKALANRGWHVIMACRNLEKAEQAAKNLQIPPEAYTILHLDLSSLASVRGFVESFRALNRPLRALVCNAAVYYPLLKEPIYSVDGYEITVATNHLGHFLLINLLLEDLKNSPESDKRLVILGTVTANRKELGGKIPIPAPPDLGNLEGFEKGFKKPIAMINGKPFKSGKAYKDSKLCNMLTARELHRRFHESTGIVFNSLYPGCVADTPLFRHHFPLFQKLFPLFQKKITGGYVSQELAGERVAMVVADPEFRQSGVHWSWGLEHHHHHH”, for which the protein production result is “not failed”.
